The text below walks through data of paper PMC8298264, “Function of cofactor Akirin2 in the regulation of gene expression in model human neutrophil-like HL60 cells” (Bioscience Reports, 2021).

B1: sp¦P50570¦DYN2_HUMAN (protein, UniProt P50570 1-870, looked up)
Dynamin-2: MGNRGMEELIPLVNKLQDAFSSIGQSCHLDLPQIAVVGGQSAGKSSVLENFVGRDFLPRGSGIVTRRPLILQLIFSKTEHAEFLHCKSKKFTDFDEVRQEIEAETDRVTGTNKGISPVPINLRVYSPHVLNLTLIDLPGITKVPVGDQPPDIEYQIKDMILQFISRESSLILAVTPANMDLANSDALKLAKEVDPQGLRTIGVITKLDLMDEGTDARDVLENKLLPLRRGYIGVVNRSQKDIEGKKDIRAALAAERKFFLSHPAYRHMADRMGTPHLQKTLNQQLTNHIRESLPALRSKLQSQLLSLEKEVEEYKNFRPDDPTRKTKALLQMVQQFGVDFEKRIEGSGDQVDTLELSGGARINRIFHERFPFELVKMEFDEKDLRREISYAIKNIHGVRTGLFTPDLAFEAIVKKQVVKLKEPCLKCVDLVIQELINTVRQCTSKLSSYPRLREETERIVTTYIREREGRTKDQILLLIDIEQSYINTNHEDFIGFANAQQRSTQLNKKRAIPNQGEILVIRRGWLTINNISLMKGGSKEYWFVLTAESLSWYKDEEEKEKKYMLPLDNLKIRDVEKGFMSNKHVFAIFNTEQRNVYKDLRQIELACDSQEDVDSWKASFLRAGVYPEKDQAENEDGAQENTFSMDPQLERQVETIRNLVDSYVAIINKSIRDLMPKTIMHLMINNTKAFIHHELLAYLYSSADQSSLMEESADQAQRRDDMLRMYHALKEALNIIGDISTSTVSTPVPPPVDDTWLQSASSHSPTPQRRPVSSIHPPGRPPAVRGPTPGPPLIPVPVGAAASFSAPPIPSRPGPQSVFANSDLFPAPPQIPSRPVRIPPGIPPGVPSRRPPAAPSRPTIIRPAEPSLLD
B2: sp¦Q96E11¦RRFM_HUMAN (protein, UniProt Q96E11 56-262, looked up)
Ribosome-recycling factor, …: ATKKAKAKGKGQSQTRVNINAALVEDIINLEEVNEEMKSVIEALKDNFNKTLNIRTSPGSLDKIAVVTADGKLALNQISQISMKSPQLILVNMASFPECTAAAIKAIRESGMNLNPEVEGTLIRVPIPQVTREHREMLVKLAKQNTNKAKDSLRKVRTNSMNKLKKSKDTVSEDTIRLIEKQISQMADDTVAELDRHLAVKTKELLG
B3: sp¦Q9BTE7¦DCNL5_HUMAN (protein, UniProt Q9BTE7 1-237, looked up)
DCN1-like protein 5: MPVKKKRKSPGVAAAVAEDGGLKKCKISSYCRSQPPARLISGEEHFSSKKCLAWFYEYAGPDEVVGPEGMEKFCEDIGVEPENIIMLVLAWKLEAESMGFFTKEEWLKGMTSLQCDCTEKLQNKFDFLRSQLNDISSFKNIYRYAFDFARDKDQRSLDIDTAKSMLALLLGRTWPLFSVFYQYLEQSKYRVMNKDQWYNVLEFSRTVHADLSNYDEDGAWPVLLDEFVEWQKVRQTS
B4: sp¦O94874¦UFL1_HUMAN (protein, UniProt O94874 2-794, looked up)
E3 UFM1-protein ligase 1: ADAWEEIRRLAADFQRAQFAEATQRLSERNCIEIVNKLIAQKQLEVVHTLDGKEYITPAQISKEMRDELHVRGGRVNIVDLQQVINVDLIHIENRIGDIIKSEKHVQLVLGQLIDENYLDRLAEEVNDKLQESGQVTISELCKTYDLPGNFLTQALTQRLGRIISGHIDLDNRGVIFTEAFVARHKARIRGLFSAITRPTAVNSLISKYGFQEQLLYSVLEELVNSGRLRGTVVGGRQDKAVFVPDIYSRTQSTWVDSFFRQNGYLEFDALSRLGIPDAVSYIKKRYKTTQLLFLKAACVGQGLVDQVEASVEEAISSGTWVDIAPLLPTSLSVEDAAILLQQVMRAFSKQASTVVFSDTVVVSEKFINDCTELFRELMHQKAEKEMKNNPVHLITEEDLKQISTLESVSTSKKDKKDERRRKATEGSGSMRGGGGGNAREYKIKKVKKKGRKDDDSDDESQSSHTGKKKPEISFMFQDEIEDFLRKHIQDAPEEFISELAEYLIKPLNKTYLEVVRSVFMSSTTSASGTGRKRTIKDLQEEVSNLYNNIRLFEKGMKFFADDTQAALTKHLLKSVCTDITNLIFNFLASDLMMAVDDPAAITSEIRKKILSKLSEETKVALTKLHNSLNEKSIEDFISCLDSAAEACDIMVKRGDKKRERQILFQHRQALAEQLKVTEDPALILHLTSVLLFQFSTHSMLHAPGRCVPQIIAFLNSKIPEDQHALLVKYQGLVVKQLVSQSKKTGQGDYPLNNELDKEQEDVASTTRKELQELSSSIKDLVLKSRKSSVTEE
B5: sp¦Q15006¦EMC2_HUMAN (protein, UniProt Q15006 2-297, looked up)
ER membrane protein complex …: AKVSELYDVTWEEMRDKMRKWREENSRNSEQIVEVGEELINEYASKLGDDIWIIYEQVMIAALDYGRDDLALFCLQELRRQFPGSHRVKRLTGMRFEAMERYDDAIQLYDRILQEDPTNTAARKRKIAIRKAQGKNVEAIRELNEYLEQFVGDQEAWHELAELYINEHDYAKAAFCLEELMMTNPHNHLYCQQYAEVKYTQGGLENLELSRKYFAQALKLNNRNMRALFGLYMSASHIASNPKASAKTKKDNMKYASWAASQINRAYQFAGRSKKETKYSLKAVEDMLETLQITQS
B6: sp¦Q29RF7¦PDS5A_HUMAN (protein, UniProt Q29RF7 1-1337, looked up)
Sister chromatid cohesion …: MDFTAQPKPATALCGVVSADGKIAYPPGVKEITDKITTDEMIKRLKMVVKTFMDMDQDSEDEKQQYLPLALHLASEFFLRNPNKDVRLLVACCLADIFRIYAPEAPYTSHDKLKDIFLFITRQLKGLEDTKSPQFNRYFYLLENLAWVKSYNICFELEDCNEIFIQLFRTLFSVINNSHNKKVQMHMLDLMSSIIMEGDGVTQELLDSILINLIPAHKNLNKQSFDLAKVLLKRTVQTIEACIANFFNQVLVLGRSSVSDLSEHVFDLIQELFAIDPHLLLSVMPQLEFKLKSNDGEERLAVVRLLAKLFGSKDSDLATQNRPLWQCFLGRFNDIHVPVRLESVKFASHCLMNHPDLAKDLTEYLKVRSHDPEEAIRHDVIVTIITAAKRDLALVNDQLLGFVRERTLDKRWRVRKEAMMGLAQLYKKYCLHGEAGKEAAEKVSWIKDKLLHIYYQNSIDDKLLVEKIFAQYLVPHNLETEERMKCLYYLYASLDPNAVKALNEMWKCQNMLRSHVRELLDLHKQPTSEANCSAMFGKLMTIAKNLPDPGKAQDFVKKFNQVLGDDEKLRSQLELLISPTCSCKQADICVREIARKLANPKQPTNPFLEMVKFLLERIAPVHIDSEAISALVKLMNKSIEGTADDEEEGVSPDTAIRSGLELLKVLSFTHPTSFHSAETYESLLQCLRMEDDKVAEAAIQIFRNTGHKIETDLPQIRSTLIPILHQKAKRGTPHQAKQAVHCIHAIFTNKEVQLAQIFEPLSRSLNADVPEQLITPLVSLGHISMLAPDQFASPMKSVVANFIVKDLLMNDRSTGEKNGKLWSPDEEVSPEVLAKVQAIKLLVRWLLGMKNNQSKSANSTLRLLSAMLVSEGDLTEQKRISKSDMSRLRLAAGSAIMKLAQEPCYHEIITPEQFQLCALVINDECYQVRQIFAQKLHKALVKLLLPLEYMAIFALCAKDPVKERRAHARQCLLKNISIRREYIKQNPMATEKLLSLLPEYVVPYMIHLLAHDPDFTRSQDVDQLRDIKECLWFMLEVLMTKNENNSHAFMKKMAENIKLTRDAQSPDESKTNEKLYTVCDVALCVINSKSALCNADSPKDPVLPMKFFTQPEKDFCNDKSYISEETRVLLLTGKPKPAGVLGAVNKPLSATGRKPYVRSTGTETGSNINVNSELNPSTGNRSREQSSEAAETGVSENEENPVRIISVTPVKNIDPVKNKEINSDQATQGNISSDRGKKRTVTAAGAENIQQKTDEKVDESGPPAPSKPRRGRRPKSESQGNATKNDDLNKPINKGRKRAAVGQESPGGLEAGNAKAPKLQDLAKKAAPAERQIDLQR
B7: sp¦Q9BVI4¦NOC4L_HUMAN (protein, UniProt Q9BVI4 1-516, looked up)
Nucleolar complex protein 4 …: MEREPGAAGVRRALGRRLEAVLASRSEANAVFDILAVLQSEDQEEIQEAVRTCSRLFGALLERGELFVGQLPSEEMVMTGSQGATRKYKVWMRHRYHSCCNRLGELLGHPSFQVKELALSALLKFVQLEGAHPLEKSKWEGNYLFPRELFKLVVGGLLSPEEDQSLLLSQFREYLDYDDTRYHTMQAAVDAVARVTGQHPEVPPAFWNNAFTLLSAVSLPRREPTVSSFYVKRAELWDTWKVAHLKEHRRVFQAMWLSFLKHKLPLSLYKKVLLIVHDAILPQLAQPTLMIDFLTRACDLGGALSLLALNGLFILIHKHNLEYPDFYRKLYGLLDPSVFHVKYRARFFHLADLFLSSSHLPAYLVAAFAKRLARLALTAPPEALLMVLPFICNLLRRHPACRVLVHRPHGPELDADPYDPGEEDPAQSRALESSLWELQALQRHYHPEVSKAASVINQALSMPEVSIAPLLELTAYEIFERDLKKKGPEPVPLEFIPAQGLLGRPGELCAQHFTLS
B8: sp¦P63151¦2ABA_HUMAN (protein, UniProt P63151 2-447, looked up)
Serine/threonine-protein …: AGAGGGNDIQWCFSQVKGAVDDDVAEADIISTVEFNHSGELLATGDKGGRVVIFQQEQENKIQSHSRGEYNVYSTFQSHEPEFDYLKSLEIEEKINKIRWLPQKNAAQFLLSTNDKTIKLWKISERDKRPEGYNLKEEDGRYRDPTTVTTLRVPVFRPMDLMVEASPRRIFANAHTYHINSISINSDYETYLSADDLRINLWHLEITDRSFNIVDIKPANMEELTEVITAAEFHPNSCNTFVYSSSKGTIRLCDMRASALCDRHSKLFEEPEDPSNRSFFSEIISSISDVKFSHSGRYMMTRDYLSVKIWDLNMENRPVETYQVHEYLRSKLCSLYENDCIFDKFECCWNGSDSVVMTGSYNNFFRMFDRNTKRDITLEASRENNKPRTVLKPRKVCASGKRKKDEISVDSLDFNKKILHTAWHPKENIIAVATTNNLYIFQDKVN
B9: sp¦Q9Y383¦LC7L2_HUMAN (protein, UniProt Q9Y383 1-392, looked up)
Putative RNA-binding protein …: MSAQAQMRAMLDQLMGTSRDGDTTRQRIKFSDDRVCKSHLLNCCPHDVLSGTRMDLGECLKVHDLALRADYEIASKEQDFFFELDAMDHLQSFIADCDRRTEVAKKRLAETQEEISAEVAAKAERVHELNEEIGKLLAKVEQLGAEGNVEESQKVMDEVEKARAKKREAEEVYRNSMPASSFQQQKLRVCEVCSAYLGLHDNDRRLADHFGGKLHLGFIEIREKLEELKRVVAEKQEKRNQERLKRREEREREEREKLRRSRSHSKNPKRSRSREHRRHRSRSMSRERKRRTRSKSREKRHRHRSRSSSRSRSRSHQRSRHSSRDRSRERSKRRSSKERFRDQDLASCDRDRSSRDRSPRDRDRKDKKRSYESANGRSEDRRSSEEREAGEI

For one experiment, the system named is human HL60 cells. Briefly: SWATH-MS proteomics, differential protein representation, akirin2 KO vs WT HL60 cells. The experiment is classed as cell-based. The following applies: SWATH-MS, akirin2 KO vs WT HL60 cells; sheet "Under-represented in KO". The essentials:
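First, proteins from wild-type and knockout cells are digested with trypsin by FASP. Next, pooled IDA runs generate a reference ion library. Then six samples of 5 µg each are acquired by data-independent SWATH, and protein areas are normalized to the summed area of all detected proteins.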
On to B1, for which the “Fold Change” value is on record as 0.7916 and the “Log (Fold Change)” value is reported as -0.1015.

With B2, the “Fold Change” value was found to be 0.7929 and the “Log (Fold Change)” value was -0.1008.

Turning to B3, the “Fold Change” value is recorded as 0.7927 and the “Log (Fold Change)” value was -0.1009.

In the case of B4, the “Fold Change” value was found to be 0.7911 and the “Log (Fold Change)” value is on record as -0.1018.

Regarding B5, the “Fold Change” value was 0.7911 and the “Log (Fold Change)” value is -0.1017.

Still in this experiment, the particulars now being: akirin2 KO vs WT HL60 cells; sheet "Under-represented in KO".
Consider B6, for which the “Fold Change” value is listed as 0.08984 and the “Log (Fold Change)” value was -1.047.

With B7, the “Fold Change” value was 0.3572 and the “Log (Fold Change)” value was -0.4471.

For the molecule B8, the “Fold Change” value is given as 0.3625 and the “Log (Fold Change)” value was -0.4407.

On to B9, for which the “Fold Change” value was found to be 0.3527 and the “Log (Fold Change)” value is recorded as -0.4526.
